{
  "source": "the DeepSol protein solubility set",
  "data": [
    {"assay": "soluble on expression in E. coli; label from the status in PepcDB or PDB records", "values": [
      {"sequence": "MGSDKIHHHHHHMELPVVVQQALGDNAPGVSFRSVSQIDTGHLLRMVLLSDDQGNLQAICRRNDMLDLEALNKRLGRDLRMMQRREQVRVRQKAGLQELPALPSLTGWPTVVDRRVDELEAVALELGEQDLGLMMPAEDFRQLTAKAARHDFAVDTANISVNLDNHAADRDQLHSAIKRFTGLRIQQRLEDTLELPPLPETAQRIIHLRVNPNAVMGDLVDVVESDPSLAAQVVSWASSSFYAAAGRVHSVHDAVSRVLGFDLVMNLAMGLALGRALKHPQDHPDGYVDYWQQAIWQAQSAGILASMMPRGQRPLFGLAYLAGLLHNFGHLVLAQVFPPHFKLVCRSLEVSPHIDSSVIEHYLLGITREQIAAQLMENWGMPDEVTLAIRYQKNPAYDGPHNVYARLLWLGRQLLTERGVALGAGESATQAVYDELGLDRELVQEQFDELVRRKDSIMAMAGMMSQGG", "soluble on expression in E. coli": "not soluble"},
      {"sequence": "QVRLVESGGGVVQPGGSLRLSCEGSGFKFGDHGIHWVRQAPGEGLQWLTVISSDGTDERYTDSVKGRFTISRDNSKNTMSLQMNNLRPEDMGLYYCARDGKCGGGRCYSGLLDYWGQGTMVTVSSASFKGPSVFPLAPSSKSTSGGTAALGCLVKDYFPEPVTVSWNSGALTSGVHTFPAVLQSSGLYSLSSVVTVPSSSLGTQTYICNVNHKPSNTKVDKKVEPKSCDKTHTGLEHHHHHH", "soluble on expression in E. coli": "soluble"},
      {"sequence": "MPRRIDKVSSMTKGHITMSMNKLNLFNIYRKDPLQYFGKTLYQQKWAAKTETRNYHGQQIKEKRFKNVLFDSNLKTYSQLDASLKGHDVAPTPITLQTYGTLEKRLEIALFRSMFASSVRQARQFILGGYVKVNGVVIKHPSFPLQSGDVFSVDPEKVLFALGKTKPSLEKALSVDKKQIKKWNNYVFEAKKNPEKIWDLKQNKPDSLDTLKQVEDFEKQKKSVQNAQKLMKIQQNQVTRQSILQEIIQLGNAASEPASLETFNKYGDVARTKCLQIYQTLTNKNHPITKDPSTKNIEGFLAKDENKSPEEKHEVRLINSTLRELQSSEWERIRIQFENFEEGTDTKFFQTSFAKALRGVPKLNKEEILEDESKAKVQLPWQKHLFGRKDPSRSYFTPWTPRPFLGAFAILPSHIEISFDTCHAIYLRDPVARPGHSEVISPFPDHVHERAYMYYVRKGKS", "soluble on expression in E. coli": "not soluble"},
      {"sequence": "MDTIWDADLQSAALKAEHHRLKTERLSLGYEGKSVCDALDLAIPHGKFSVIVGPNGCGKSTLLKSLCRLLKPLAGQVLLDGQNIHQLPTKVVAKQLGLLPQSALTPEGIKVVDLVSRGRYPHQGLFRQWSRVDERAVEEAMRATHVHELAQHSVDQLSGGQRQRVWVAMALAQQTPYLLLDEPTTYLDIAHQIELLDLFWRLNRQQGHTLVAVLHDLNQACRYADHLIVLQEGKIVAQGDPHSLVTPALVKQVFGIDCVVMPDPISCTPLIIPYSLKRG", "soluble on expression in E. coli": "not soluble"},
      {"sequence": "ARSAYSYIREAWKRPKEGQIAELMWHRMQEWRNEPAVVRIERPTRLDRARSLGYKAKQGIIVVRVAIRKGSSRRTRFNKGRRSKRMMVNRITRKKNIQRIAEERANRKFPNLRVLNSYSVGEDGRHKWHEVILIDPDHPAIKSDDQLSWISRTRHRLRTFRGLTSAGRRCRGLRGQGKGSEKVRPSLRVNGAKA", "soluble on expression in E. coli": "soluble"},
      {"sequence": "MAHHHHHHMNRKRPRSPAGVQYWLMKSEPNKFSIDDLKKCTRSPWDGVRNYAARNNMKLMKVGDCVLFYHSNAKPSGVVGLASVVKTAYPDHTALDPKSEYYDARASKKNPWEMVDVQFEEKFASIVSLEELKKEKKLQAMQLFSQSRLSVQPVEKSEYDHVVSLGRKK", "soluble on expression in E. coli": "soluble"},
      {"sequence": "MPEQLNTRVEDCFQLAESFFKRPFKRPVVSLKLRGQKAGVAHLHENLLRFNPQLYRENTEDFLKQTVAHEVAHLIAHQLFGERIQPHGEEWQLIMRGVYELPPNRCHTYDVKRRSVTRYIYRCPCAESDFPFSAQRHKLVAQGRRYLCRRCRQTLVYSGETRVELEHHHHHH", "soluble on expression in E. coli": "not soluble"},
      {"sequence": "MGSDKIHHHHHHMAFNIDGSGNKSGVRSNMLSENNILKYGSNFSKANASSLNNKINSLNYTVEYINNELMGIFFRQGLKFGIFKAVEDFRPTISELITILGYPNEEFVEKYIKTAVSLNLLNLNEEERLELNSDFIYSSIHPEYDKIISDHVSRYDFMSGLVQYAFIGYDHPEILLNFKKDADIWDMMLNTKYMKTCREVISEYLDIKNGDTILEVGCGSRSPLYFASKVAPNGEYVGVDISKKLIRVAQGRLKRSGIECAKLKALDFSETIAKNKHDYVLCIHTLSYADSLKLFLKKMMGSLRKGGKLVIMEEFFTENINTNAELFEFYNHLNKYFKNYVSKTEILKELELIGIDYKYELLGDNCIVVERI", "soluble on expression in E. coli": "not soluble"},
      {"sequence": "MTRSGNTRNGKYMGEDKRRYHTITNILQYNLIPDFFTIFAKYCITFKNMTMEKTFAQISELFDQFSKDASLQVEKGNKAAGTRARKASLELEKLLKRFRKESLEASK", "soluble on expression in E. coli": "not soluble"},
      {"sequence": "MIARGSRAPRCPQCRVIDSYCLCAWRPTVAAESGMCLLMYDTEPMKPTNTGWLIADVIKDTYAFGWSRVEIDAHLRALLDDPQWQPYIVFPGEFVAQERVVAEVAREDGKRPLFILLDATWNEARKMFRKSPYLEKFPVLSLAPEQISRYRLRRSKRDDHFCTAEVAALCLELAGDVSASGVLDAYLDVFSAHYLGAKFQRPIDPDDVAHTYLKAFILEHHHHHH", "soluble on expression in E. coli": "not soluble"},
      {"sequence": "MGSDKIHHHHHHMKFSLGPSLFFWPKNEVVDFYQQAKESSADVIYLGETVCSKRRELRAKDWLGLAQDVAQDTNKQVVVSTMTLLESPAEIQVLKRLCDNGEFLVEANDLSAVQIMHELKMPFVAGPAINCYNLSTLKVLLKQGMTRWLMPVELSGDWLKILLEQATEAGIRQQFECEVFSWGYLPLAYSARCFTARSEDKAKDDCEYCCIKYPEGRRMNSREGERVFVLNGIQTLSGYQYNLINEMPALDAMGVDIARISADSTEAFTQLDNFREQLVNPTRKELDGVTECNGFWHKIAGMSVA", "soluble on expression in E. coli": "not soluble"},
      {"sequence": "MTHNQSTALLTDMYELTMLQSALADGTAERQCTFEVFGRRLPNERRYGVVAGTPRVLEAVQNFRFTEAQLASLTFLNDTTLEYLRNYRFAGHIDGYREGELYFPHSPILTVRGTFAECVILETVILSIMNADSAVATAAARMVTAADGRTIIEMGSRRTHEYAAVTATRAAYLAGFSATSNLEAVHRYGIPGSGTAAHAWTLLHVNEDGTPNEKSAFESQVRAQGTGTTLLIDTYDIAQGVRNAIEVAGPELGAVRIDSGDLGVMTRKIRQELDNLGAHNTQIVVSSDLDEYAIAGLRGNPVDVFGVGTSVVTGSGAPTAGMVYKLVEVDGNPVSKRSRGKGMLGGAKRAARTHRASGTAVEELVFPYEHPVPQVGTLTSVELTIPLMRDGVVVEGLPTLEESRAYLAQQLVTIPWEGLALSRDEPVLATRHVGFDQLEHHHHHH", "soluble on expression in E. coli": "soluble"},
      {"sequence": "MSNKLESYRSEIVSLNHQILDLLSKRGELAQKIGEEKLKQGTRIYDPQREKEMLNDLIDSNKGPFNDNTIKQLFKEIFKASTDLQKSENEKHLYVSRKLKPEDTIVTFDNGGIIGDGNKSFVFGPCSVESFEQVEAVAKNLHAKGEKFIRGGAFKPRTSPYDFQGLGVEGLKILKQIKDKYDLNVVSEIVNPNDFEVADEYLDVFQIGARNMQNFELLKEAGRTKKPILLKRGLSATIEEFVYAAEYIASQGNQNIILCERGIRTYEKATRNTLDISAVPILKQGTHLPVMVDVTHSTGRKDIMLPTAKAALAVGADGVMAEVHPDPSVALSDAGQQMDLDEFQAFYDELKPLADLYNAKKLK", "soluble on expression in E. coli": "not soluble"},
      {"sequence": "MGSDKIHHHHHHMAELNKTKVRKELRTERPSIYSFELDEIKQWLTDNGEKPFRAAQIFEWLYEKRVSSFEDMTNLSKDLREKLNTRFVLTTLKTAVKQTSQDGTMKFLFELHDGYTIETVLMRHEYGNSVCVTTQVGCRIGCTFCASTLGGLKRNLEAGEIVAQVVKVQKALDETDERVSSVVIMGIGEPFDNFNEMLAFLKIINHDKGLNIGARHITVSTSGIIPKIYEFADQQMQINFAISLHAPNTEIRSRLMPINRAYKLPDLMEAVKYYINKTGRRISFEYGLFGGVNDQVEHAEELADLLEGVKCHVNLIPVNYVPERDYVRTPRDQIFAFEKTLKSRGVNVTIRREQGHDIDAACGQLRAKERQDETR", "soluble on expression in E. coli": "not soluble"},
      {"sequence": "MGSDKIHHHHHHLRTNTPTFINIRNSYKIKTIMHFHLSGNAASDLKIVRFEDFSGSADAFRQHWYVHRVTMQRRKHVIVMEESTRYALLFCRVTQPFFKNFPEFFADTLWRHIVSLCAVPTARFGSIQAMTTDMCSENIYHKGLNRSVQAHIRDSFLTLECYLLHEPPINLARQEDVFQMNIRINETPRTRYGEKNYIWSLREFQRLWCEHLGVAAVRG", "soluble on expression in E. coli": "not soluble"},
      {"sequence": "MEEELASYKLQLQQVEAALLGDPTNVELLKLKEDLGEIISLQEDLAETDKAESSERAVVAPQVIHKWTVGERVIAPHPDGKKVFARIDSLTPAGVAITFTSTGTKTIVDPADLQLPPENQRKNYAFDNTKSAAGPSTQHGKKEWQAEKERRRQKALKKQQKQKELDSIKDGEKKSWQKFNTKANAKGLKGLKKVSATGSSQDGSASSSGGGGEKRGTIVSSRSSQFIFKATRGAMDSLF", "soluble on expression in E. coli": "not soluble"},
      {"sequence": "DCEKEGEVQWFALPVVLVSGCKKERAIEMKLPTEALFACLQNYPHLRALTQETQWLPYLVHSSDLSAVAPDEWWRAKQNTEAAAQHLRRFAPRPLLLPEGQSVHVVYALGFGSGKVQTALGQNLLQAGLPLMQVWQENLASEGVTLFANPLSPDSPVRALSDGSHTRQRMAMDVFAANAIRAVRMQSPR", "soluble on expression in E. coli": "not soluble"},
      {"sequence": "MRIYLIGFMCSGKSTVGSLLSRSLNIPFYDVDEEVQKREGLSIPQIFEKKGEAYFRKLEFEVLKDLSEKENVVISTGGGLGANEEALNFMKSRGTTVFIDIPFEVFLERCKDSKERPLLKRPLDEIKNLFEERRKIYSKADIKVKGEKPPEEVVKEILLSLEGNALGG", "soluble on expression in E. coli": "soluble"},
      {"sequence": "MSLSHIHFLIALATLVPVTAPAMQVSTQAPLVDATGQTLHIRGVTWPGFDRAGLTAVGMRNNTLAQLLDRMQASDINAVRVPVCAAVLQRAPVAAAEVAGDSTLRGLDSLQLLDAVVHAATQRGMHVMFAFADGGCDDRAPLLGAQQQAWTRGLVTLARRYGGNANVLGIDLGSSGYRNASWAGNAADQNWNRVASRAAAMVLAQAPRWVVGVEGVGSNAVCSDPGRKALGSNLQPFACVPLDIAPRHLVLMPKLAGPDRDTTDAFAAPGFAQALPAMWQRDFGQFAIDHTVVPVSLGGGLGDGDPRDPAWQTALSGYLANTGMRSAFLGSWETSNANNGGLLAPDGSPRADKLLILRHAWGMLPVMPAIATATGDSTKNASGTKGWNSTFTGTATSTGSGYSGGAVLLDPIPSDAFITALNSTQMNFGGIKAALAGAYLEVTGPKGKTTVYVTDLYPDGASGGLDLSYNAFAAIGNLADGHIPISWKVVRAPITGNVQYRIKEGSSRYWAAIQVRHHIYPVVKLEVKQGSTWTSLPKTPYNHFVGTNLGNKPLSIRITDIRGKVIADKIPALPEYGGSAAYFEPGHVQFPEGHHHHHH", "soluble on expression in E. coli": "soluble"},
      {"sequence": "MAKPVVIGSRSFRTQSSALDHYKALLHRYQDGQRIADPADHTDLVALIERFDPVLDAVGEPAKGAGQIAHFERRLNTGIGWSTPGFWVVRQDGTETDFSYIDAVKGRPKGRSQDFYNACRQAVALDLVLAKKQAFAQYGDDQGRVECELTGKMVTIDDAHLDHAWPYFSHMVSGFRAARGWSRDIPDGIVSTPADGQTTATFLDSAVTEAFRAFHHDQAVLRVLSREANLQTASSARRPKVARPVRLA", "soluble on expression in E. coli": "not soluble"},
      {"sequence": "MKIFAVVVTYNRLALLKKVIDLLKRQTRQLDSIVIVNNGSTDGTKEWLEQEKNITLINQSNSGGAGGFETGVKYAYENEADWIWMMDDDVFPNIDCLEKLLGWTSISQCIQPRRYYSDDVEVNFEQWLDPITYSKFGYWQEKSFNNGKKFCAINVGCFEGMFVSKSIVNKIGFPDKRFFIAEDDTIYGFAASFYTNVILVSDAIMVRARRSSDRSVSPMYTYYACRNFHLVYESLNLLLDKKNRFLYIKYIYQFVHQIYLSIFLYDNKMKHLISVFRGFYDCFRKKNGATYLEHHHHHH", "soluble on expression in E. coli": "not soluble"}
    ]}
  ]
}
